According to publication PMC7907199, “Prokaryotic Argonaute from Archaeoglobus fulgidus interacts with DNA as a homodimer” (Scientific Reports, 2020):

How the values were obtained:
[1] = biological target: AfAgoΔ (dimerization mutant of AfAgo lacking residues 296–303) (Archaeoglobus fulgidus) (UniProt O28951)
[2] = biological target: the molecule itself; assay: cell-based or functional assay
[3] = biological target: the molecule itself; assay: SEC-MALS; apo proteins without nucleic acids; 1.0 mg/mL (20 µM monomer), 2.0 mL injected; HiLoad 16/60 Superdex 200; 100 mM Tris–HCl pH 8.0, 1000 mM NaCl, 0.04% NaN3; dimer to monomers
WT AfAgo = biological target: T1, WT AfAgo (Archaeoglobus fulgidus (ATCC 49558), UniProt O28951 1-427); assay: SEC-MALS; 5 mM MgCl2; 5 uM protein monomer, 5 uM duplex; mostly 2:2 protein:DNA; SEC-MALS of complexes: 15 mM Tris-HCl pH 8.0, 150 mM NaCl, 5 mM MgCl2, 0.5 mM DTT, 0.04% NaN3; EMSA, AFM and smFRET buffers not in the material; settings: protein: recombinant; chain copies: 2; blunt; self-complementary, 2 copies of the strand
T1 sequence: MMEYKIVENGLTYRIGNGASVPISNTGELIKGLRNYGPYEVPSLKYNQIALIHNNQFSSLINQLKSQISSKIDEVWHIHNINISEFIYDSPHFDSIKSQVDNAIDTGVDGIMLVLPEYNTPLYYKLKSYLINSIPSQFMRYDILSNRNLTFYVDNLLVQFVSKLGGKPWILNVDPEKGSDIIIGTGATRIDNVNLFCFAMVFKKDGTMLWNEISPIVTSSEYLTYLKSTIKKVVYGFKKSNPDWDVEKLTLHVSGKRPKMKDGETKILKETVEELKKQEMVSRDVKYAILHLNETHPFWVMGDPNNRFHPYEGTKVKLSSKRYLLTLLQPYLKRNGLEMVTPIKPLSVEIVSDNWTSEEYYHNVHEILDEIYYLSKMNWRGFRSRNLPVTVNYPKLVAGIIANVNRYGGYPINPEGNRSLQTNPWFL

[4] = biological target: T2, AfAgoΔ (dimerization mutant) (Archaeoglobus fulgidus (ATCC 49558), UniProt O28951 1-427, del296-303); assay: SEC-MALS; 5 mM MgCl2; 5 uM protein monomer, 5 uM duplex; major peak 1:1 protein:DNA; SEC-MALS of complexes: 15 mM Tris-HCl pH 8.0, 150 mM NaCl, 5 mM MgCl2, 0.5 mM DTT, 0.04% NaN3; EMSA, AFM and smFRET buffers not in the material; settings: protein: recombinant; blunt; self-complementary, 2 copies of the strand
T2 sequence: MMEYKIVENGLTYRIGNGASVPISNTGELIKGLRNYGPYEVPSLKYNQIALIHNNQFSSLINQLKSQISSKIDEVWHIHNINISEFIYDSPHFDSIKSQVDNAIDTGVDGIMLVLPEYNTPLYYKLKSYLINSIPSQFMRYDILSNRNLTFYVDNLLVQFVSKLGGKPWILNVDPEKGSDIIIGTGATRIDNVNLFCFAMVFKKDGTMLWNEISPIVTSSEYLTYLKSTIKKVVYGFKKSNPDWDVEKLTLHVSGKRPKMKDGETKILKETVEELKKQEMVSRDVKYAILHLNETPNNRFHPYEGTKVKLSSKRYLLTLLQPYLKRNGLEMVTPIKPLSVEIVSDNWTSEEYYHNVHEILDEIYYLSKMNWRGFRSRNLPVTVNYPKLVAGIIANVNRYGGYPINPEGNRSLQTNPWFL

Molecule: AfAgoΔ (dimerization mutant of AfAgo lacking residues 296–303) (from UniProt O28951 1-427) (natural protein)
- AFM: DNA loops, % of protein–DNA complexes [1]: 26%

B1: WT AfAgo (prokaryotic Argonaute from Archaeoglobus fulgidus, full-length wild type) (natural protein, UniProt O28951 1-427, looked up)
chain: T1 sequence
notes: The printed theoretical Mw of the monomer in the assays (50.8 kDa) is 49.2 kDa plus the 1.63 kDa tag, so the tag was on the protein; In some assays the protein carried a 5'-phosphorylated DNA duplex (MZ-1289) or a long DNA fragment; also called apo-AfAgo; source: E. coli BL21(DE3), purified (Ni2+ HiTrap chelating, RNase A/T1 treatment, HiTrap Heparin, Superdex 200)
- smFRET in solution: DNA looping efficiency K (ratio of looped to unlooped dual-labelled 569 bp DNA) against WT AfAgo concentration; maximum at 2 nM, lower at higher concentrations [2]: 2.5
- stoichiometry N [3]: 2

B2: MZ-1289 oligoduplex (dsDNA)
DNA 1: ATTGTACGTACAAT
DNA 2: ATTGTACGTACAAT
modifications: 5'-phosphate
- binding result (WT AfAgo): binds
- binding result [4]: binds
